Laboratory results from the Human Domainome abundance scans (Beltran et al. 2025).
± gives the uncertainty stated by the source.

B1: Proto-oncogene vav, residues 782 to 842; numbered along this chain, P15498 (parent)
chain: KYFGTAKARYDFCARDRSELSLKEGDIIKILNKKGQQGWWRGEIYGRVGWFPANYVEEDYS

Variants of: B1
Assay: abundance fitness (aPCA) (normalised: wild type 0, dead -1); higher = more abundant; growth selection in yeast, the domain comes from the species named
Details: Homo sapiens

Variant	abundance fitness
KYFGTAKACYDFCARDRSELSLKEGDIIKILNKKGQQGWWRGEIYGRVGWFPANYVEEDYS [R9C]	-0.356 ± 0.11
KYFGTAKGRYDFCARDRSELSLKEGDIIKILNKKGQQGWWRGEIYGRVGWFPANYVEEDYS [A8G]	-0.953 ± 0.11
KYFGTAKFRYDFCARDRSELSLKEGDIIKILNKKGQQGWWRGEIYGRVGWFPANYVEEDYS [A8F]	-0.785 ± 0.26
KYFGTAKERYDFCARDRSELSLKEGDIIKILNKKGQQGWWRGEIYGRVGWFPANYVEEDYS [A8E]	-0.745 ± 0.14
KYFGTAKQRYDFCARDRSELSLKEGDIIKILNKKGQQGWWRGEIYGRVGWFPANYVEEDYS [A8Q]	-0.956 ± 0.35
KYFGTAKLRYDFCARDRSELSLKEGDIIKILNKKGQQGWWRGEIYGRVGWFPANYVEEDYS [A8L]	-0.731 ± 0.14
KYFGTAKRRYDFCARDRSELSLKEGDIIKILNKKGQQGWWRGEIYGRVGWFPANYVEEDYS [A8R]	-0.903 ± 0.12
KYFGTAKWRYDFCARDRSELSLKEGDIIKILNKKGQQGWWRGEIYGRVGWFPANYVEEDYS [A8W]	-1.04 ± 0.32
KYFGTAKYRYDFCARDRSELSLKEGDIIKILNKKGQQGWWRGEIYGRVGWFPANYVEEDYS [A8Y]	-0.708 ± 0.38
KYFGTAKPRYDFCARDRSELSLKEGDIIKILNKKGQQGWWRGEIYGRVGWFPANYVEEDYS [A8P]	-0.606 ± 0.13
KYFGTAKIRYDFCARDRSELSLKEGDIIKILNKKGQQGWWRGEIYGRVGWFPANYVEEDYS [A8I]	-0.535 ± 0.23
KYFGTAKHRYDFCARDRSELSLKEGDIIKILNKKGQQGWWRGEIYGRVGWFPANYVEEDYS [A8H]	-0.62 ± 0.21
KYFGTAKDRYDFCARDRSELSLKEGDIIKILNKKGQQGWWRGEIYGRVGWFPANYVEEDYS [A8D]	-0.864 ± 0.38
KYFGTAKTRYDFCARDRSELSLKEGDIIKILNKKGQQGWWRGEIYGRVGWFPANYVEEDYS [A8T]	-0.756 ± 0.19
KYFGTAKVRYDFCARDRSELSLKEGDIIKILNKKGQQGWWRGEIYGRVGWFPANYVEEDYS [A8V]	-0.035 ± 0.069
KYFGTAKCRYDFCARDRSELSLKEGDIIKILNKKGQQGWWRGEIYGRVGWFPANYVEEDYS [A8C]	-0.582 ± 0.2
KYFGTAKMRYDFCARDRSELSLKEGDIIKILNKKGQQGWWRGEIYGRVGWFPANYVEEDYS [A8M]	-0.727 ± 0.26
KYFGKAKARYDFCARDRSELSLKEGDIIKILNKKGQQGWWRGEIYGRVGWFPANYVEEDYS [T5K]	-0.468 ± 0.14
KYFGRAKARYDFCARDRSELSLKEGDIIKILNKKGQQGWWRGEIYGRVGWFPANYVEEDYS [T5R]	-0.209 ± 0.059
KYFGCAKARYDFCARDRSELSLKEGDIIKILNKKGQQGWWRGEIYGRVGWFPANYVEEDYS [T5C]	-0.152 ± 0.11
KYFGPAKARYDFCARDRSELSLKEGDIIKILNKKGQQGWWRGEIYGRVGWFPANYVEEDYS [T5P]	-0.401 ± 0.12
KYFGEAKARYDFCARDRSELSLKEGDIIKILNKKGQQGWWRGEIYGRVGWFPANYVEEDYS [T5E]	-0.25 ± 0.11

Variant	abundance fitness
KYFGMAKARYDFCARDRSELSLKEGDIIKILNKKGQQGWWRGEIYGRVGWFPANYVEEDYS [T5M]	-0.209 ± 0.096
KYFGWAKARYDFCARDRSELSLKEGDIIKILNKKGQQGWWRGEIYGRVGWFPANYVEEDYS [T5W]	-0.178 ± 0.088
KYFGSAKARYDFCARDRSELSLKEGDIIKILNKKGQQGWWRGEIYGRVGWFPANYVEEDYS [T5S]	-0.179 ± 0.077
KYFGFAKARYDFCARDRSELSLKEGDIIKILNKKGQQGWWRGEIYGRVGWFPANYVEEDYS [T5F]	0.168 ± 0.13
KYFGHAKARYDFCARDRSELSLKEGDIIKILNKKGQQGWWRGEIYGRVGWFPANYVEEDYS [T5H]	-0.094 ± 0.12
KYFGVAKARYDFCARDRSELSLKEGDIIKILNKKGQQGWWRGEIYGRVGWFPANYVEEDYS [T5V]	-0.159 ± 0.065
KYFGYAKARYDFCARDRSELSLKEGDIIKILNKKGQQGWWRGEIYGRVGWFPANYVEEDYS [T5Y]	-0.064 ± 0.13
KYFGIAKARYDFCARDRSELSLKEGDIIKILNKKGQQGWWRGEIYGRVGWFPANYVEEDYS [T5I]	-0.248 ± 0.14
KYFGLAKARYDFCARDRSELSLKEGDIIKILNKKGQQGWWRGEIYGRVGWFPANYVEEDYS [T5L]	-0.099 ± 0.069
KYFGAAKARYDFCARDRSELSLKEGDIIKILNKKGQQGWWRGEIYGRVGWFPANYVEEDYS [T5A]	-0.084 ± 0.067
KYFRTAKARYDFCARDRSELSLKEGDIIKILNKKGQQGWWRGEIYGRVGWFPANYVEEDYS [G4R]	-0.183 ± 0.068
KYFPTAKARYDFCARDRSELSLKEGDIIKILNKKGQQGWWRGEIYGRVGWFPANYVEEDYS [G4P]	0.011 ± 0.099
KYFWTAKARYDFCARDRSELSLKEGDIIKILNKKGQQGWWRGEIYGRVGWFPANYVEEDYS [G4W]	-0.169 ± 0.11
KYFHTAKARYDFCARDRSELSLKEGDIIKILNKKGQQGWWRGEIYGRVGWFPANYVEEDYS [G4H]	-0.292 ± 0.19
KYFCTAKARYDFCARDRSELSLKEGDIIKILNKKGQQGWWRGEIYGRVGWFPANYVEEDYS [G4C]	-0.274 ± 0.14
KYFDTAKARYDFCARDRSELSLKEGDIIKILNKKGQQGWWRGEIYGRVGWFPANYVEEDYS [G4D]	-0.083 ± 0.075
KYFFTAKARYDFCARDRSELSLKEGDIIKILNKKGQQGWWRGEIYGRVGWFPANYVEEDYS [G4F]	-0.348 ± 0.17
KYFETAKARYDFCARDRSELSLKEGDIIKILNKKGQQGWWRGEIYGRVGWFPANYVEEDYS [G4E]	-0.298 ± 0.11
KYFYTAKARYDFCARDRSELSLKEGDIIKILNKKGQQGWWRGEIYGRVGWFPANYVEEDYS [G4Y]	-0.213 ± 0.15
KYFITAKARYDFCARDRSELSLKEGDIIKILNKKGQQGWWRGEIYGRVGWFPANYVEEDYS [G4I]	-0.238 ± 0.19
KYFSTAKARYDFCARDRSELSLKEGDIIKILNKKGQQGWWRGEIYGRVGWFPANYVEEDYS [G4S]	-0.111 ± 0.058
KYFMTAKARYDFCARDRSELSLKEGDIIKILNKKGQQGWWRGEIYGRVGWFPANYVEEDYS [G4M]	-0.164 ± 0.12

Variant	abundance fitness
KYFNTAKARYDFCARDRSELSLKEGDIIKILNKKGQQGWWRGEIYGRVGWFPANYVEEDYS [G4N]	-0.166 ± 0.15
KYFQTAKARYDFCARDRSELSLKEGDIIKILNKKGQQGWWRGEIYGRVGWFPANYVEEDYS [G4Q]	-0.151 ± 0.12
KYFTTAKARYDFCARDRSELSLKEGDIIKILNKKGQQGWWRGEIYGRVGWFPANYVEEDYS [G4T]	-0.089 ± 0.11
KYFLTAKARYDFCARDRSELSLKEGDIIKILNKKGQQGWWRGEIYGRVGWFPANYVEEDYS [G4L]	-0.247 ± 0.071
KYFATAKARYDFCARDRSELSLKEGDIIKILNKKGQQGWWRGEIYGRVGWFPANYVEEDYS [G4A]	-0.163 ± 0.081
KYFGTNKARYDFCARDRSELSLKEGDIIKILNKKGQQGWWRGEIYGRVGWFPANYVEEDYS [A6N]	-0.905 ± 0.15
KYFGTYKARYDFCARDRSELSLKEGDIIKILNKKGQQGWWRGEIYGRVGWFPANYVEEDYS [A6Y]	-0.264 ± 0.069
KYFGTDKARYDFCARDRSELSLKEGDIIKILNKKGQQGWWRGEIYGRVGWFPANYVEEDYS [A6D]	-0.679 ± 0.12
KYFGTSKARYDFCARDRSELSLKEGDIIKILNKKGQQGWWRGEIYGRVGWFPANYVEEDYS [A6S]	-0.654 ± 0.073
KYFGTFKARYDFCARDRSELSLKEGDIIKILNKKGQQGWWRGEIYGRVGWFPANYVEEDYS [A6F]	-0.694 ± 0.11
KYFGTEKARYDFCARDRSELSLKEGDIIKILNKKGQQGWWRGEIYGRVGWFPANYVEEDYS [A6E]	-0.904 ± 0.24
KYFGTCKARYDFCARDRSELSLKEGDIIKILNKKGQQGWWRGEIYGRVGWFPANYVEEDYS [A6C]	-0.115 ± 0.068
KYFGTVKARYDFCARDRSELSLKEGDIIKILNKKGQQGWWRGEIYGRVGWFPANYVEEDYS [A6V]	-0.214 ± 0.054
KYFGTKKARYDFCARDRSELSLKEGDIIKILNKKGQQGWWRGEIYGRVGWFPANYVEEDYS [A6K]	-0.725 ± 0.24
KYFGTIKARYDFCARDRSELSLKEGDIIKILNKKGQQGWWRGEIYGRVGWFPANYVEEDYS [A6I]	-0.852 ± 0.13
KYFGTHKARYDFCARDRSELSLKEGDIIKILNKKGQQGWWRGEIYGRVGWFPANYVEEDYS [A6H]	-0.677 ± 0.13
KYFGTMKARYDFCARDRSELSLKEGDIIKILNKKGQQGWWRGEIYGRVGWFPANYVEEDYS [A6M]	-0.733 ± 0.19
KYFGTPKARYDFCARDRSELSLKEGDIIKILNKKGQQGWWRGEIYGRVGWFPANYVEEDYS [A6P]	-0.832 ± 0.2
KYFGTTKARYDFCARDRSELSLKEGDIIKILNKKGQQGWWRGEIYGRVGWFPANYVEEDYS [A6T]	-0.883 ± 0.14
KYSGTAKARYDFCARDRSELSLKEGDIIKILNKKGQQGWWRGEIYGRVGWFPANYVEEDYS [F3S]	-0.167 ± 0.057
KYRGTAKARYDFCARDRSELSLKEGDIIKILNKKGQQGWWRGEIYGRVGWFPANYVEEDYS [F3R]	-0.145 ± 0.059
KYNGTAKARYDFCARDRSELSLKEGDIIKILNKKGQQGWWRGEIYGRVGWFPANYVEEDYS [F3N]	-0.173 ± 0.097

Variant	abundance fitness
KYYGTAKARYDFCARDRSELSLKEGDIIKILNKKGQQGWWRGEIYGRVGWFPANYVEEDYS [F3Y]	-0.009 ± 0.14
KYTGTAKARYDFCARDRSELSLKEGDIIKILNKKGQQGWWRGEIYGRVGWFPANYVEEDYS [F3T]	-0.063 ± 0.087
KYPGTAKARYDFCARDRSELSLKEGDIIKILNKKGQQGWWRGEIYGRVGWFPANYVEEDYS [F3P]	-0.232 ± 0.09
KYWGTAKARYDFCARDRSELSLKEGDIIKILNKKGQQGWWRGEIYGRVGWFPANYVEEDYS [F3W]	-0.166 ± 0.083
KYVGTAKARYDFCARDRSELSLKEGDIIKILNKKGQQGWWRGEIYGRVGWFPANYVEEDYS [F3V]	-0.029 ± 0.068
KYFGTAWARYDFCARDRSELSLKEGDIIKILNKKGQQGWWRGEIYGRVGWFPANYVEEDYS [K7W]	-0.407 ± 0.099
KYFGTAMARYDFCARDRSELSLKEGDIIKILNKKGQQGWWRGEIYGRVGWFPANYVEEDYS [K7M]	0.006 ± 0.11
KYFGTAVARYDFCARDRSELSLKEGDIIKILNKKGQQGWWRGEIYGRVGWFPANYVEEDYS [K7V]	-0.152 ± 0.083
KYFGTAGARYDFCARDRSELSLKEGDIIKILNKKGQQGWWRGEIYGRVGWFPANYVEEDYS [K7G]	-0.629 ± 0.13
KYFGTAIARYDFCARDRSELSLKEGDIIKILNKKGQQGWWRGEIYGRVGWFPANYVEEDYS [K7I]	-0.232 ± 0.17
KYFGTAYARYDFCARDRSELSLKEGDIIKILNKKGQQGWWRGEIYGRVGWFPANYVEEDYS [K7Y]	-0.133 ± 0.16
KYFGTAQARYDFCARDRSELSLKEGDIIKILNKKGQQGWWRGEIYGRVGWFPANYVEEDYS [K7Q]	-0.093 ± 0.094
KYFGTADARYDFCARDRSELSLKEGDIIKILNKKGQQGWWRGEIYGRVGWFPANYVEEDYS [K7D]	-0.766 ± 0.39
KYFGTANARYDFCARDRSELSLKEGDIIKILNKKGQQGWWRGEIYGRVGWFPANYVEEDYS [K7N]	-0.797 ± 0.42
KYFGTALARYDFCARDRSELSLKEGDIIKILNKKGQQGWWRGEIYGRVGWFPANYVEEDYS [K7L]	-0.191 ± 0.058
KYFGTAPARYDFCARDRSELSLKEGDIIKILNKKGQQGWWRGEIYGRVGWFPANYVEEDYS [K7P]	-0.97 ± 0.29
KYFGTACARYDFCARDRSELSLKEGDIIKILNKKGQQGWWRGEIYGRVGWFPANYVEEDYS [K7C]	-0.04 ± 0.14
KYFGTAHARYDFCARDRSELSLKEGDIIKILNKKGQQGWWRGEIYGRVGWFPANYVEEDYS [K7H]	-0.233 ± 0.21
KYFGTAEARYDFCARDRSELSLKEGDIIKILNKKGQQGWWRGEIYGRVGWFPANYVEEDYS [K7E]	-0.511 ± 0.12
KYFGTAAARYDFCARDRSELSLKEGDIIKILNKKGQQGWWRGEIYGRVGWFPANYVEEDYS [K7A]	-0.475 ± 0.1
KYFGTASARYDFCARDRSELSLKEGDIIKILNKKGQQGWWRGEIYGRVGWFPANYVEEDYS [K7S]	-0.381 ± 0.089
